In the supplement of paper PMC7877785:
± gives the uncertainty stated by the source.

Assay: self-splicing fitness, log relative to wild type (ln ratio); higher = more splicing; Tetrahymena group I intron in knt gene, E. coli kanamycin selection, DiMSum; sequences stand for … in CUCUCU…GGAGGGAAAAGUUAUCAGGCAUGCACCUGGUAGCUAGUCUUUAAACCAAUAGAUUGCAUCGGUUUAAAAGGCAAGACCGUCAAAUUGCGGGAAAGGGGUCAACAGCCGUUCAGUACCAAGUCUCAGGGGAAACUUUGAGAUGGCCUUGCAAAGGGUAUGGUAAUAAGCUGACGGACAUGGUCCUAACCACGCAGCCAAGUCCUAAGUCAACAGAUCUUCUGUUGAUAUGGAUGCAGUUCACAGACUAAAUGUCGGUCGGGGAAGAUGUAUUCUUCUCAUAAGAUAUAGUCGGACCUCUCCUUAAUGGGAGCUAGCGGAUGAAGUGAUGCAACACUGGAGCCGCUGGGAACUAAUUUGUAUGCGAAAGUAUAUUGAUUAGUUUUGGAGUACUCGUGGUCG
Outline: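 The eight P1ex-region nucleotides of an intron in the knt kanamycin-resistance gene on pET-22b(+) were all randomised and the library put into E. coli BL21(DE3). Six replicate transformations were grown overnight at 37°C or 30°C on LB agar with or without 25 μg/mL kanamycin, together with 100 μg/mL carbenicillin, 50 μM IPTG and 0.2% rhamnose. Colonies were pooled and amplicon-sequenced on an Illumina HiSeq 2500. Fitness from DiMSum is the error-weighted combination of wild-type-normalised replicate fold changes, kanamycin over none.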

Sequence | self-splicing fitness (ln) (30 °C) | self-splicing fitness (ln) (37 °C)
CGAUAGCAAUAUUACGCUUU | -3.56 ± 0.35 | -3.14 ± 0.34
AGACAGCAAUAUUACGCUGU | -4.06 ± 0.29 | -2.54 ± 0.21
GGUCAGCAAUAUUACGGGCA | -0.684 ± 0.1 | -0.119 ± 0.11
GCCCAGCAAUAUUACGGAUA | -0.88 ± 0.078 | 0.215 ± 0.089
CGCGAGCAAUAUUACGGGCU | -3.12 ± 0.21 | -1.17 ± 0.24
AUCAAGCAAUAUUACGGAUU | -3.31 ± 0.17 | -1.2 ± 0.14
ACAGAGCAAUAUUACGCACA | – | -1.39 ± 0.36
CGUAAGCAAUAUUACGGUAU | -3.71 ± 0.37 | -2.56 ± 0.26
GCCUAGCAAUAUUACGGAAG | -2.96 ± 0.17 | -1.44 ± 0.17
CCCCAGCAAUAUUACGUGGA | -3.09 ± 0.086 | -1.23 ± 0.068
UACCAGCAAUAUUACGGGUG | -3.23 ± 0.097 | -1.78 ± 0.078
AUCGAGCAAUAUUACGGGAG | -3.52 ± 0.25 | -2.5 ± 0.29
AGCUAGCAAUAUUACGUUUU | -2.36 ± 0.14 | -2.18 ± 0.16
AUGGAGCAAUAUUACGCUAA | -3.13 ± 0.45 | -1.32 ± 0.45
GCGGAGCAAUAUUACGCUGG | – | -2.1 ± 0.4
UUCUAGCAAUAUUACGAGGG | – | -1.5 ± 0.17
GUUUAGCAAUAUUACGACCU | -1.03 ± 0.11 | -0.456 ± 0.14
ACUAAGCAAUAUUACGGUUA | -2.02 ± 0.1 | -1.06 ± 0.086
GUAUAGCAAUAUUACGGUAA | -2.59 ± 0.23 | -1.24 ± 0.15
GGAUAGCAAUAUUACGAACG | 0.209 ± 0.14 | -0.196 ± 0.18
GAUUAGCAAUAUUACGAUUC | -2.58 ± 0.22 | -1.45 ± 0.2

Sequence | self-splicing fitness (ln) (30 °C) | self-splicing fitness (ln) (37 °C)
GUCGAGCAAUAUUACGCCGG | – | -1.99 ± 0.41
UCGAAGCAAUAUUACGGCUU | -3.32 ± 0.27 | -2.85 ± 0.22
CAGGAGCAAUAUUACGCCGU | -4.09 ± 0.31 | -2.29 ± 0.29
UAAAAGCAAUAUUACGCGUC | -3.53 ± 0.24 | -2.7 ± 0.21
CUAUAGCAAUAUUACGACUG | 0.0686 ± 0.17 | -0.119 ± 0.17
GCCGAGCAAUAUUACGUCUA | -3.15 ± 0.29 | -0.742 ± 0.15
GCUCAGCAAUAUUACGACGA | -1.94 ± 0.17 | -1.5 ± 0.18
GCAUAGCAAUAUUACGACAU | -1.03 ± 0.013 | -0.295 ± 0.032
AUUAAGCAAUAUUACGUACA | -1.2 ± 0.1 | -0.1 ± 0.13
UUUGAGCAAUAUUACGAUCA | -2.12 ± 0.24 | -1.28 ± 0.25
AAACAGCAAUAUUACGAACU | -0.252 ± 0.065 | -0.265 ± 0.077
AAGGAGCAAUAUUACGCGCC | -2.85 ± 0.24 | -1.19 ± 0.17
UCGUAGCAAUAUUACGGUUC | -3.12 ± 0.3 | -2.07 ± 0.27
AUGGAGCAAUAUUACGAGGC | -3.37 ± 0.34 | -2.44 ± 0.23
AAGAAGCAAUAUUACGGGGA | -3.37 ± 0.29 | -2.18 ± 0.17
AUUUAGCAAUAUUACGCGAA | -3.01 ± 0.21 | -0.549 ± 0.16
AUAUAGCAAUAUUACGCCGC | -2.58 ± 0.49 | –
GGAUAGCAAUAUUACGACCG | -1.59 ± 0.26 | -1.08 ± 0.28
UAUUAGCAAUAUUACGAGGG | -3.12 ± 0.3 | -2.13 ± 0.3
GUGGAGCAAUAUUACGAGUA | – | -1.96 ± 0.44
CCAGAGCAAUAUUACGGACG | -1.73 ± 0.069 | -0.584 ± 0.085

Sequence | self-splicing fitness (ln) (30 °C) | self-splicing fitness (ln) (37 °C)
AUUAAGCAAUAUUACGUUGG | -3.38 ± 0.28 | -2.23 ± 0.28
AAUCAGCAAUAUUACGACAC | -0.56 ± 0.12 | -1.46 ± 0.15
UGCAAGCAAUAUUACGAUCA | 0.00924 ± 0.069 | 0.117 ± 0.077
GGCCAGCAAUAUUACGUUCG | -2.66 ± 0.12 | -1.75 ± 0.11
AAUGAGCAAUAUUACGUGCA | -2.95 ± 0.22 | -0.932 ± 0.14
UCUGAGCAAUAUUACGGAGG | -3.34 ± 0.32 | -1.79 ± 0.27
ACCGAGCAAUAUUACGGUCA | -1.22 ± 0.12 | -1.06 ± 0.14
CUAAAGCAAUAUUACGAACG | 0.195 ± 0.089 | 0.868 ± 0.12
AUAGAGCAAUAUUACGUUGC | -2.95 ± 0.2 | -2.05 ± 0.26
UACCAGCAAUAUUACGUUAG | -1.18 ± 0.068 | -1.16 ± 0.067
GCCGAGCAAUAUUACGUAAC | -2.89 ± 0.19 | -0.977 ± 0.2
CUAGAGCAAUAUUACGAUAC | -2.63 ± 0.35 | -2.25 ± 0.34
AGAUAGCAAUAUUACGCCGC | -3.03 ± 0.3 | -2.04 ± 0.32
UCUGAGCAAUAUUACGAGGG | -4.14 ± 0.27 | -2.5 ± 0.3
UAUGAGCAAUAUUACGGACC | -2.56 ± 0.41 | -2.43 ± 0.31
UGUCAGCAAUAUUACGAGAC | – | -2.91 ± 0.29
ACGAAGCAAUAUUACGAGGG | -3.54 ± 0.17 | -3.26 ± 0.3
CGGUAGCAAUAUUACGAGAA | -2.77 ± 0.32 | -1.85 ± 0.33
CACAAGCAAUAUUACGUAAG | -0.372 ± 0.047 | 0.157 ± 0.065
CAAAAGCAAUAUUACGACGA | -0.512 ± 0.09 | -0.343 ± 0.094
